Target: T1, NDC80 complex (Ndc80, Nuf2, Spc24, Spc25), full length, unmodified (Homo sapiens, UniProt O14777 1-642; Q9BZD4 1-464; Q8NBT2 1-197; Q9HBM1 1-224)
T1 construct: Ndc80, subunit of human NDC80C; Nuf2, subunit of human NDC80C; Spc24, subunit of human NDC80C; Spc25, subunit of human NDC80C; The DS tag on Nuf2 is TEV cleavable; a cleavage is not described; Ndc80 and Nuf2 were in the cryo-EM sample but not seen at high resolution; also called wild-type NDC80; source: High-5 insect cells (baculovirus), purified (Strep-Tactin, Resource Q, Superdex 200); copies: …
Assay: SEC; MIS12C variant mixed with NDC80C at 4 µM each; 20 mM HEPES pH 7.8, 150 mM NaCl, 0.5 mM TCEP; Superose 6; fractions on SDS-PAGE
Settings: both partners purified

T1 sequence (O14777 whole entry, chain 1 of 4): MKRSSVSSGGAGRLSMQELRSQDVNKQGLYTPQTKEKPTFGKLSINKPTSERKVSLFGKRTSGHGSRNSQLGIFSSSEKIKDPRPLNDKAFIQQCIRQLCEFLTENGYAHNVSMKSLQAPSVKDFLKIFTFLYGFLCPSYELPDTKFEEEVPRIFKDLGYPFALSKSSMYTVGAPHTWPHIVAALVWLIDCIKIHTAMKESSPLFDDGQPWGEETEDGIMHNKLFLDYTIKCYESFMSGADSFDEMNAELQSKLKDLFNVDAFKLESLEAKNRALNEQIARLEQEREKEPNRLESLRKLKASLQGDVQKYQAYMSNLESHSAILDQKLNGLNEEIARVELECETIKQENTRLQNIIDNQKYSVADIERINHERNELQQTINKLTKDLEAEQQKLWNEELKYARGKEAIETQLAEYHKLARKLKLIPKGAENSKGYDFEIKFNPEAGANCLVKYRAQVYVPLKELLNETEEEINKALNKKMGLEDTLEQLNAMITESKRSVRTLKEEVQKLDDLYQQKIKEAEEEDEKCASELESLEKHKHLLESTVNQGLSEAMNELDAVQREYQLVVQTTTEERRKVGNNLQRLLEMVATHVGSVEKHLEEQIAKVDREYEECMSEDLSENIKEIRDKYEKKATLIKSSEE
T1 sequence (Q9BZD4 whole entry, chain 2 of 4): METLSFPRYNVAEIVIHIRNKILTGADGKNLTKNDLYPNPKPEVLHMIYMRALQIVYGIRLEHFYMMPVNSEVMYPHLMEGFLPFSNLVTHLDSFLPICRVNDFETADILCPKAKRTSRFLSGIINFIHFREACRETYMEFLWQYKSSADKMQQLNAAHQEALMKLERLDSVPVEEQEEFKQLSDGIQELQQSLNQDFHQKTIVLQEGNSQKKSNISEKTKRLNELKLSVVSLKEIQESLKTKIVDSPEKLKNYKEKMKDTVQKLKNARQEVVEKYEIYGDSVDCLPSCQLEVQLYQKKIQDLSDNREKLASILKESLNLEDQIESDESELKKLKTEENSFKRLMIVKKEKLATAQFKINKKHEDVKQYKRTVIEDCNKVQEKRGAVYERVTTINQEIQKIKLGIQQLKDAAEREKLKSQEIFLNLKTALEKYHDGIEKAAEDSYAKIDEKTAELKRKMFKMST
T1 sequence (Q8NBT2 whole entry, chain 3 of 4): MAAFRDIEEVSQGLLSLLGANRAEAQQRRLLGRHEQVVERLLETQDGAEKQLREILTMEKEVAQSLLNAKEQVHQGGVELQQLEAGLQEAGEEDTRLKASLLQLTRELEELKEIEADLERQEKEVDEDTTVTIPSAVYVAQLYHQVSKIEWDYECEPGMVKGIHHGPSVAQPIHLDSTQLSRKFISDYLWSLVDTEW
T1 sequence (Q9HBM1 whole entry, chain 4 of 4): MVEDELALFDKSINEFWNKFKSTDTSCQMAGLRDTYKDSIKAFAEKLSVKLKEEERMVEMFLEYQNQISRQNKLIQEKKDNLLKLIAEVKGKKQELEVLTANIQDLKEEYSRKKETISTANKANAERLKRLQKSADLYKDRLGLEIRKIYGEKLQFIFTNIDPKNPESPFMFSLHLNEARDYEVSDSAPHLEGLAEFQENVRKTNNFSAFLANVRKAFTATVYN

Binder | binding result
MIS12 complex (Mis12, Pmf1, Dsn1, Nsl1), wild type, full length (complex, Homo sapiens, Mis12, subunit of human MIS12C; Pmf1, subunit of human MIS12C; Dsn1, subunit of human MIS12C; Nsl1, subunit of human MIS12C; The DS tag on Pmf1 is TEV cleavable; a cleavage is not described; also called MIS12C (WT); wild-type MIS12C; source: High-5 insect cells (baculovirus), purified (Strep-Tactin, Resource S, Superdex 200); copies: + + +) chain 1: MSVDPMTYEAQFFGFTPQTCMLRIYIAFQDYLFEVMQAVEQVILKKLDGIPDCDISPVQIRKCTEKFLCFMKGHFDNLFSKMEQLFLQLILRIPSNILLPEDKCKETPYSEEDFQHLQKEIEQLQEKYKTELCTKQALLAELEEQKIVQAKLKQTLTFFDELHNVGRDHGTSDFRESLVSLVQNSRKLQNIRDNVEKESKRLKIS chain 2: MAEASSANLGSGCEEKRHEGSSSESVPPGTTISRVKLLDTMVDTFLQKLVAAGSYQRFTDCYKCFYQLQPAMTQQIYDKFIAQLQTSIREEISDIKEEGNLEAVLNALDKIVEEGKVRKEPAWRPSGIPEKDLHSVMAPYFLQQRDTLRRHVQKQEAENQQLADAVLAGRRQVEELQLQVQAQQQAWQALHREQRELVAVLREPE chain 3: MTSVTRSEIIDEKGPVMSKTHDHQLESSLSPVEVFAKTSASLEMNQGVSEERIHLGSSPKKGGNCDLSHQERLQSKSLHLSPQEQSASYQDRRQSWRRASMKETNRRKSLHPIHQGITELSRSISVDLAESKRLGCLLLSSFQFSIQKLEPFLRDTKGFSLESFRAKASSLSEELKHFADGLETDGTLQKCFEDSNGKASDFSLEASVAEMKEYITKFSLERQTWDQLLLHYQQEAKEILSRGSTEAKITEVKVEPMTYLGSSQNEVLNTKPDYQKILQNQSKVFDCMELVMDELQGSVKQLQAFMDESTQCFQKVSVQLGKRSMQQLDPSPARKLLKLQLQNPPAIHGSGSGSCQ chain 4: MAGSPELVVLDPPWDKELAAGTESQALVSATPREDFRVRCTSKRAVTEMLQLCGRFVQKLGDALPEEIREPALRDAQWTFESAVQENISINGQAWQEASDNCFMDSDIKVLEDQFDEIIVDIATKRKQYPRKILECVIKTIKAKQEILKQYHPVVHPLDLKYDPDPAPHMENLKCRGETVAKEISEAMKSLPALIEQGEGFSQVLRMQPVIHLQRIHQEVFSSCHRKPDAKPENFITQIETTPTETASRKTSDMVLKRKQTKDCPQRKWYPLRPKKINLDT | binds
MIS12 complex with Nsl1 E219R V220R F221A (complex, Homo sapiens, Mis12, subunit of human MIS12C; Pmf1, subunit of human MIS12C; Dsn1, subunit of human MIS12C; Nsl1, subunit of human MIS12C, E219R V220R F221A; also called MIS12C^(Nsl1-E219R V220R F221A); MIS12C^(Nsl1 E219/RV220R/F221A); source: High-5 insect cells (baculovirus), purified (Strep-Tactin, Resource S, Superdex 200); copies: + + +) chain 1: MSVDPMTYEAQFFGFTPQTCMLRIYIAFQDYLFEVMQAVEQVILKKLDGIPDCDISPVQIRKCTEKFLCFMKGHFDNLFSKMEQLFLQLILRIPSNILLPEDKCKETPYSEEDFQHLQKEIEQLQEKYKTELCTKQALLAELEEQKIVQAKLKQTLTFFDELHNVGRDHGTSDFRESLVSLVQNSRKLQNIRDNVEKESKRLKIS chain 2: MAEASSANLGSGCEEKRHEGSSSESVPPGTTISRVKLLDTMVDTFLQKLVAAGSYQRFTDCYKCFYQLQPAMTQQIYDKFIAQLQTSIREEISDIKEEGNLEAVLNALDKIVEEGKVRKEPAWRPSGIPEKDLHSVMAPYFLQQRDTLRRHVQKQEAENQQLADAVLAGRRQVEELQLQVQAQQQAWQALHREQRELVAVLREPE chain 3: MTSVTRSEIIDEKGPVMSKTHDHQLESSLSPVEVFAKTSASLEMNQGVSEERIHLGSSPKKGGNCDLSHQERLQSKSLHLSPQEQSASYQDRRQSWRRASMKETNRRKSLHPIHQGITELSRSISVDLAESKRLGCLLLSSFQFSIQKLEPFLRDTKGFSLESFRAKASSLSEELKHFADGLETDGTLQKCFEDSNGKASDFSLEASVAEMKEYITKFSLERQTWDQLLLHYQQEAKEILSRGSTEAKITEVKVEPMTYLGSSQNEVLNTKPDYQKILQNQSKVFDCMELVMDELQGSVKQLQAFMDESTQCFQKVSVQLGKRSMQQLDPSPARKLLKLQLQNPPAIHGSGSGSCQ chain 4: MAGSPELVVLDPPWDKELAAGTESQALVSATPREDFRVRCTSKRAVTEMLQLCGRFVQKLGDALPEEIREPALRDAQWTFESAVQENISINGQAWQEASDNCFMDSDIKVLEDQFDEIIVDIATKRKQYPRKILECVIKTIKAKQEILKQYHPVVHPLDLKYDPDPAPHMENLKCRGETVAKEISEAMKSLPALIEQGEGFSQVLRMQPVIHLQRIHQRRASSCHRKPDAKPENFITQIETTPTETASRKTSDMVLKRKQTKDCPQRKWYPLRPKKINLDT | binds
MIS12 complex with Dsn1 P332W R334A L336R (complex, Homo sapiens, Mis12, subunit of human MIS12C; Pmf1, subunit of human MIS12C; Dsn1, subunit of human MIS12C, P332W R334A L336R; Nsl1, subunit of human MIS12C; also called MIS12C^(Dsn1-P332W R334A L336R); MIS12C^(Dsn1 P332W/R334A/L336R); source: High-5 insect cells (baculovirus), purified (Strep-Tactin, Resource S, Superdex 200); copies: + + +) chain 1: MSVDPMTYEAQFFGFTPQTCMLRIYIAFQDYLFEVMQAVEQVILKKLDGIPDCDISPVQIRKCTEKFLCFMKGHFDNLFSKMEQLFLQLILRIPSNILLPEDKCKETPYSEEDFQHLQKEIEQLQEKYKTELCTKQALLAELEEQKIVQAKLKQTLTFFDELHNVGRDHGTSDFRESLVSLVQNSRKLQNIRDNVEKESKRLKIS chain 2: MAEASSANLGSGCEEKRHEGSSSESVPPGTTISRVKLLDTMVDTFLQKLVAAGSYQRFTDCYKCFYQLQPAMTQQIYDKFIAQLQTSIREEISDIKEEGNLEAVLNALDKIVEEGKVRKEPAWRPSGIPEKDLHSVMAPYFLQQRDTLRRHVQKQEAENQQLADAVLAGRRQVEELQLQVQAQQQAWQALHREQRELVAVLREPE chain 3: MTSVTRSEIIDEKGPVMSKTHDHQLESSLSPVEVFAKTSASLEMNQGVSEERIHLGSSPKKGGNCDLSHQERLQSKSLHLSPQEQSASYQDRRQSWRRASMKETNRRKSLHPIHQGITELSRSISVDLAESKRLGCLLLSSFQFSIQKLEPFLRDTKGFSLESFRAKASSLSEELKHFADGLETDGTLQKCFEDSNGKASDFSLEASVAEMKEYITKFSLERQTWDQLLLHYQQEAKEILSRGSTEAKITEVKVEPMTYLGSSQNEVLNTKPDYQKILQNQSKVFDCMELVMDELQGSVKQLQAFMDESTQCFQKVSVQLGKRSMQQLDPSWAAKRLKLQLQNPPAIHGSGSGSCQ chain 4: MAGSPELVVLDPPWDKELAAGTESQALVSATPREDFRVRCTSKRAVTEMLQLCGRFVQKLGDALPEEIREPALRDAQWTFESAVQENISINGQAWQEASDNCFMDSDIKVLEDQFDEIIVDIATKRKQYPRKILECVIKTIKAKQEILKQYHPVVHPLDLKYDPDPAPHMENLKCRGETVAKEISEAMKSLPALIEQGEGFSQVLRMQPVIHLQRIHQEVFSSCHRKPDAKPENFITQIETTPTETASRKTSDMVLKRKQTKDCPQRKWYPLRPKKINLDT | binds
